For 94 variants, protein stability index results are on record in the supplement of paper PMC10567573.

B1: IQUB (parent)
chain: KIREKEEWIKLDYHRRHNPKTNED
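Further: lentivirally expressed fusions sorted by FACS into six bins by GFP to DsRed ratio, PSI derived from sequencing read proportions per bin multiplied by bin number.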

Variants of B1 are the subject of this data set. The data set is described as follows: protein stability index of a GFP-peptide fusion (GPS, HEK-293T) (PSI 1-6); higher = more stable. The note with it: c terminus: a fixed tail appended.
As for KIREKEEWIKLDYHRRHNPRTNED [K20R], the protein stability index was 4.66.

Regarding KIREKEEWIKLDYHRRHNPETNED [K20E], the protein stability index is 5.2.

In the case of KIREKEEWIKLDYHRRHNPPTNED [K20P], the protein stability index worked out at 5.07.

As for KIREKEEWIKLDYHRRHNPKTNRD [E23R], the protein stability index was 3.72.

In the case of KIREKEEWIKLDYHRRHNPKTNSD [E23S], the protein stability index came out at 4.25.

With KIREKEEWIKLDYHRRHNPKTNQD [E23Q], the protein stability index was 4.06.

For KIREKEEWIKLDYHRRHNPKTNAD [E23A], the protein stability index was 4.52.

KIREKEEWIKLDYHRRHNPKTNTD [E23T]: the protein stability index is 4.54.

KIREKEEWIKLDYHRRHNPKTNID [E23I]: the protein stability index turned out to be 4.13.

For KIREKEEWIKLDYHRRHNPKTNLD [E23L], the protein stability index is 4.17.

For the variant KIREKEEWIKLDYHRRHNPKTNDD [E23D], the protein stability index amounted to 5.01.

In the case of KIREKEEWIKLDYHRRHNPKTNYD [E23Y], the protein stability index was determined as 3.77.

With KIREKEEWIKLDYHRRHNPKTNFD [E23F], the protein stability index was determined as 4.45.

In the case of KIREKEEWIKLDYHRRHNPKTNVD [E23V], the protein stability index is 4.18.

As for KIREKEEWIKLDYHRRHNPKTNPD [E23P], the protein stability index is 4.28.

For the variant KIREKEEWIKLDYHRRHNPKTNMD [E23M], the protein stability index is 4.17.

For the variant KIREKEEWIKLDYHRRHNPKTNWD [E23W], the protein stability index was 5.01.

Turning to KIREKEEWIKLDYHRRHNPKTNCD [E23C], the protein stability index was 3.91.

For KIREKEEWIKLDYHRRHNPKTNHD [E23H], the protein stability index came out at 4.18.

On to KIREKEEWIKLDYHRRHNPKTNND [E23N], for which the protein stability index came to 4.24.

Consider KIREKEEWIKLDYHRRHNPKTNGD [E23G], for which the protein stability index was found to be 4.44.

With KIREKEEWIKLDYHRRHNPKTNES [D24S], the protein stability index was 4.27.

Regarding KIREKEEWIKLDYHRRHNPKTNEK [D24K], the protein stability index was 4.42.

With KIREKEEWIKLDYHRRHNPKTNEG [D24G], the protein stability index was 3.72.

For the variant KIREKEEWIKLDYHRRHNPKTNEY [D24Y], the protein stability index worked out at 3.65.

Turning to KIREKEEWIKLDYHRRHNPKTNEN [D24N], the protein stability index was 4.32.

Take KIREKEEWIKLDYHRRHNPKTNEQ [D24Q]: the protein stability index worked out at 4.13.

For KIREKEEWIKLDYHRRHNPKTNEV [D24V], the protein stability index was 3.21.

As to KIREKEEWIKLDYHRRHNPKTNEM [D24M], the protein stability index was 3.88.

Turning to KIREKEEWIKLDYHRRHNPKTNEA [D24A], the protein stability index came to 3.91.

In the case of KIREKEEWIKLDYHRRHNPKTNEP [D24P], the protein stability index amounted to 3.66.

On to KIREKEEWIKLDYHRRHNPKTNEH [D24H], for which the protein stability index was determined as 4.04.

On to KIREKEEWIKLDYHRRHNPKTNEC [D24C], for which the protein stability index came to 3.29.

Turning to KIREKEEWIKLDYHRRHNPKTNER [D24R], the protein stability index worked out at 3.89.

As to KIREKEEWIKLDYHRRHNPKTNET [D24T], the protein stability index was 4.16.

Consider KIREKEEWIKLDYHRRHNPKTNEW [D24W], for which the protein stability index worked out at 3.02.

For the variant KIREKEEWIKLDYHRRHNPKTNEF [D24F], the protein stability index worked out at 3.27.

With KIREKEEWIKLDYHRRHNPKTNEI [D24I], the protein stability index was found to be 3.83.

Regarding KIREKEEWIKLDYHRRHNPKTNEL [D24L], the protein stability index stood at 3.53.

For KIREKEEWIKLDYHRRHNPKLNED [T21L], the protein stability index is 4.13.

On to KIREKEEWIKLDYHRRHNPKVNED [T21V], for which the protein stability index was 4.46.

Take KIREKEEWIKLDYHRRHNPKCNED [T21C]: the protein stability index worked out at 4.57.

KIREKEEWIKLDYHRRHNPKWNED [T21W]: the protein stability index was determined as 3.77.

With KIREKEEWIKLDYHRRHNPKANED [T21A], the protein stability index stood at 5.18.

Consider KIREKEEWIKLDYHRRHNPKMNED [T21M], for which the protein stability index came to 4.1.

For the variant KIREKEEWIKLDYHRRHNPKYNED [T21Y], the protein stability index is 4.52.

For the variant KIREKEEWIKLDYHRRHNPKRNED [T21R], the protein stability index is 4.82.

In the case of KIREKEEWIKLDYHRRHNPKHNED [T21H], the protein stability index stood at 4.08.

KIREKEEWIKLDYHRRHNPKINED [T21I]: the protein stability index is 4.33.

Turning to KIREKEEWIKLDYHRRHNPKPNED [T21P], the protein stability index came out at 4.74.

For KIREKEEWIKLDYHRRHNPKDNED [T21D], the protein stability index is 4.79.

For KIREKEEWIKLDYHRRHNPKSNED [T21S], the protein stability index came out at 4.76.

On to KIREKEEWIKLDYHRRHNPKENED [T21E], for which the protein stability index turned out to be 4.6.

KIREKEEWIKLDYHRRHNPKGNED [T21G]: the protein stability index turned out to be 5.12.

Turning to KIREKEEWIKLDYHRRHNPKQNED [T21Q], the protein stability index turned out to be 4.75.

Consider KIREKEEWIKLDYHRRHNPKFNED [T21F], for which the protein stability index worked out at 4.53.

With KIREKEEWIKLDYHRRHNPKKNED [T21K], the protein stability index turned out to be 5.05.

As to KIREKEEWIKLDYHRRHNPKNNED [T21N], the protein stability index was 4.75.

As for KIREKEEWIKLDYHRRHNPKTVED [N22V], the protein stability index turned out to be 4.15.

Turning to KIREKEEWIKLDYHRRHNPKTTED [N22T], the protein stability index turned out to be 4.6.

Consider KIREKEEWIKLDYHRRHNPKTWED [N22W], for which the protein stability index was 2.8.

Consider KIREKEEWIKLDYHRRHNPKTLED [N22L], for which the protein stability index was determined as 4.2.

In the case of KIREKEEWIKLDYHRRHNPKTSED [N22S], the protein stability index turned out to be 4.72.

For KIREKEEWIKLDYHRRHNPKTFED [N22F], the protein stability index was determined as 3.84.

Regarding KIREKEEWIKLDYHRRHNPKTIED [N22I], the protein stability index is 4.01.

Turning to KIREKEEWIKLDYHRRHNPKTQED [N22Q], the protein stability index was determined as 4.66.

In the case of KIREKEEWIKLDYHRRHNPKTRED [N22R], the protein stability index worked out at 4.03.

Take KIREKEEWIKLDYHRRHNPKTPED [N22P]: the protein stability index stood at 4.36.

As for KIREKEEWIKLDYHRRHNPKTAED [N22A], the protein stability index turned out to be 4.27.

With KIREKEEWIKLDYHRRHNPKTCED [N22C], the protein stability index turned out to be 4.85.

On to KIREKEEWIKLDYHRRHNPKTKED [N22K], for which the protein stability index came out at 4.29.

As for KIREKEEWIKLDYHRRHNPKTMED [N22M], the protein stability index worked out at 4.29.

Take KIREKEEWIKLDYHRRHNPKTDED [N22D]: the protein stability index turned out to be 4.7.

Turning to KIREKEEWIKLDYHRRHNPKTGED [N22G], the protein stability index turned out to be 4.79.

As to KIREKEEWIKLDYHRRHNPKTYED [N22Y], the protein stability index is 4.01.

Turning to KIREKEEWIKLDYHRRHNPKTHED [N22H], the protein stability index stood at 4.22.

Turning to KIREKEEWIKLDYHRRHNHKTNED [P19H], the protein stability index was 4.3.

For KIREKEEWIKLDYHRRHNNKTNED [P19N], the protein stability index came to 5.13.

With KIREKEEWIKLDYHRRHNWKTNED [P19W], the protein stability index was 4.33.

As to KIREKEEWIKLDYHRRHNGKTNED [P19G], the protein stability index stood at 4.46.

As to KIREKEEWIKLDYHRRHNLKTNED [P19L], the protein stability index amounted to 3.91.

In the case of KIREKEEWIKLDYHRRHNDKTNED [P19D], the protein stability index was 4.77.

Consider KIREKEEWIKLDYHRRHNMKTNED [P19M], for which the protein stability index amounted to 4.71.

Take KIREKEEWIKLDYHRRHNEKTNED [P19E]: the protein stability index was found to be 4.65.

As for KIREKEEWIKLDYHRRHNCKTNED [P19C], the protein stability index worked out at 4.61.

For KIREKEEWIKLDYHRRHNAKTNED [P19A], the protein stability index came to 4.59.

On to KIREKEEWIKLDYHRRHNSKTNED [P19S], for which the protein stability index came to 4.99.

Turning to KIREKEEWIKLDYHRRHNYKTNED [P19Y], the protein stability index worked out at 4.06.

Consider KIREKEEWIKLDYHRRHNTKTNED [P19T], for which the protein stability index is 4.49.

For KIREKEEWIKLDYHRRHNKKTNED [P19K], the protein stability index was determined as 4.95.

Regarding KIREKEEWIKLDYHRRHNIKTNED [P19I], the protein stability index was 4.92.

For KIREKEEWIKLDYHRRHNQKTNED [P19Q], the protein stability index was found to be 4.68.

In the case of KIREKEEWIKLDYHRRHYPKTNED [N18Y], the protein stability index came out at 3.71.

As to KIREKEEWIKLDYHRRHVPKTNED [N18V], the protein stability index was found to be 4.32.
